Experimental data from publication PMC3197598.

Target: fibrin (human fibrinogen treated with alpha-thrombin) (human) (UniProt P02679)
Experiment: ELISA; human fibrinogen coated overnight on MaxSorb 96-well plates, wells treated with PBS (fibrinogen) or 100 nM alpha-thrombin in 1% sodium-citrate/PBS for one hour at room temperature (fibrin); ClfA in 1% sodium-citrate added at increasing concentrations for one hour; bound ClfA detected with polyclonal anti-ClfA and anti-rabbit-HRP; non-linear regression, one-site saturation

Chain of clumping factor A (ClfA), purified recombinant (Q53653 40-899): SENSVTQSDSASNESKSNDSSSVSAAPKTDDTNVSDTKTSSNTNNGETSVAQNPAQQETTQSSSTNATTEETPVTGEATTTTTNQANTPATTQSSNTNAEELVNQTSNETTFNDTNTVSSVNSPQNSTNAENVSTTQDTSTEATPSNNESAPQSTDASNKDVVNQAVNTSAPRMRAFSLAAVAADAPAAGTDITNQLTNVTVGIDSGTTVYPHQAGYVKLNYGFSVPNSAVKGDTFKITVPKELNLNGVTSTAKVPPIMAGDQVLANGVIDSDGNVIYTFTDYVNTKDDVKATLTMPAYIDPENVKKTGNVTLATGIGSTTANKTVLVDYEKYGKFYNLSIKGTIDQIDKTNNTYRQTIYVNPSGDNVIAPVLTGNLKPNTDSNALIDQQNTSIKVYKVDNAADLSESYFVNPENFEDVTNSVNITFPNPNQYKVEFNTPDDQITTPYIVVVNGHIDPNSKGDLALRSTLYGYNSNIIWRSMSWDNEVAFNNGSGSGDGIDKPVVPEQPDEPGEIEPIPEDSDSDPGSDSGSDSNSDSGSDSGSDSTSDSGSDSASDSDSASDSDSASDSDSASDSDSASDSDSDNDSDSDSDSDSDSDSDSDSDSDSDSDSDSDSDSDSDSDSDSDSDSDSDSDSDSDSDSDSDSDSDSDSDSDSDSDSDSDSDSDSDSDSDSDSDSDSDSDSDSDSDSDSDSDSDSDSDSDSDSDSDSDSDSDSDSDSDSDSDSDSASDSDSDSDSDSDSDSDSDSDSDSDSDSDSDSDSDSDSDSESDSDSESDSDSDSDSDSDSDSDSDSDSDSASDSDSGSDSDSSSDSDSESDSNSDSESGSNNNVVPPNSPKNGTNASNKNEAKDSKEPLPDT

In the case of “clumping factor A (ClfA), purified recombinant (from UniProt Q53653 40-899) (natural protein)”, the Kd is reported as 662 nM.
